These results are taken from publication PMC11371640, “Structural deficits in key domains of Shank2 lead to alterations in postsynaptic nanoclusters and to a neurodevelopmental disorder in humans” (Molecular Psychiatry, 2022).

The target in data set [1] is T1, GST fusion protein of the GKAP C-terminus (50 C-terminal residues), P97836-4.
T1 chain: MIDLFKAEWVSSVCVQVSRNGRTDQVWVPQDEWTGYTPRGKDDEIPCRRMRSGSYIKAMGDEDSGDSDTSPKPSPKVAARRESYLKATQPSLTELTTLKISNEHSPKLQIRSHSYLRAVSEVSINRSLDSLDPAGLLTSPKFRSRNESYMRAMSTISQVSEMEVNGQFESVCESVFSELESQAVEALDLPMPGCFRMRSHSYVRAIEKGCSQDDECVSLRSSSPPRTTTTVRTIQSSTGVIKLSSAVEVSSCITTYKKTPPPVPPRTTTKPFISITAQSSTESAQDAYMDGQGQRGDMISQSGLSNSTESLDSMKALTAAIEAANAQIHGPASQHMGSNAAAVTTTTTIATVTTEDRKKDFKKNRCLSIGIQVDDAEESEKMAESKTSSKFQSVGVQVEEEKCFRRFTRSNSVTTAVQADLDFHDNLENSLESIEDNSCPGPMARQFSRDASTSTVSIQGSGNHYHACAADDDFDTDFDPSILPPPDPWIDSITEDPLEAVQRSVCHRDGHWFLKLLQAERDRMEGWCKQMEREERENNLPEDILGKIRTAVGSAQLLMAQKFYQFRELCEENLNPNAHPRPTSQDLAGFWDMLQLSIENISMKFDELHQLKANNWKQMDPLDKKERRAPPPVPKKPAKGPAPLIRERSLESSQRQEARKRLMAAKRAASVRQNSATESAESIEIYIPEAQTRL
The experiment in a line: GST pulldown, Western blot quantification. The note with it: chain shown with the change; 293T cell lysates; four independent experiments; parent: est. 3.8; read off a plot. (In western blotting, separated proteins are transferred to a membrane and probed.)

In data set [2] the target is T2, His6-SUMO-tagged SH3 to PDZ domains of Shank2 (R520-D727), WT ( (human or rat cDNA cloned), UniProt Q9UPX8-3 520-727).
T2 construct: Shank2, SH3 to PDZ domains, residues R520-D727; numbers count on: NM_012309.5 (isoform of 1849 residues); Cloned into pET-SUMO; also called His6-SUMO-SH3-PDZ fusion; Shank2 WT; source: E. coli BL21(DE3), purified (Ni-NTA agarose, G-25); not shown: His6, N-terminal, kept; SUMO, N-terminal, kept
T2 sequence (looked up): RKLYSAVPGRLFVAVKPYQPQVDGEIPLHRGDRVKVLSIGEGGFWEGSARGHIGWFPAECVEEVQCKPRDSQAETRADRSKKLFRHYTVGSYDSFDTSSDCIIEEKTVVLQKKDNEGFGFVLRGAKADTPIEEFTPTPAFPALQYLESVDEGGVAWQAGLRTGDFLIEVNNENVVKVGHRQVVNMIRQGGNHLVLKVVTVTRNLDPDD
The experiment in a line: ITC; peptide in the syringe (200 µM; 1 mM for G643R), His6-SUMO SH3-PDZ protein in the cell (20-30 µM); 25 °C; 50 mM Tris-HCl pH 8.0, 100 mM NaCl, 1 mM EDTA; 1:1 binding model. The note with it: both partners purified. For orientation: ITC needs no label: the signal is the heat of the interaction.

Data set [3] concerns the molecule itself. The data set can be described thus: turbidity (absorbance at 350 nm); His6-SUMO-tagged SAM domains, 10 µM, mixed with Zn2+ in 96-well plates (200 µl); absorbance after 10 min or every 10 s with 10 µM Zn2+; 0.5 M NaCl, 20 mM Tris/HCl pH 7.5.
Data set [4] concerns the molecule itself. The data set can be described thus: crystal structure; Shank2-SAM WT (0.1 M Bis-Tris pH 5.5, 0.3 M Mg-formate) and L1800W (0.1 M Bis-Tris pH 5.5, 26% PEG 2000MME); sitting drop vapor diffusion; contacts between symmetry-related SAM domains in the crystal; no Zn2+ added.
Data set [5] deals with the molecule itself. The data set can be described thus: dynamic light scattering; isolated SAM domains (tag cleaved), 50 µM protein and 50 µM Zn2+, 1 h at room temperature, filtered 0.22 µm.

B1: mCherry-tagged human Shank2a (WT), Q9UPX8-3 G643R (protein)
chain: MPRSPTSSEDEMAQSFSDYSVGSESDSSKEETIYDTIRATAEKPGGARTEESQGNTLVIRVVIHDLQQTKCIRFNPDATVWVAKQRILCTLTQSLKDVLNYGLFQPASNGRDGKFLDEERLLREYPQPVGEGVPSLEFRYKKRVYKQASLDEKQLAKLHTKTNLKKCMDHIQHRLVEKITKMLDRGLDPNFHDPETGETPLTLAAQLDDSVEVIKALKNGGAHLDFRAKDGMTALHKAARARNQVALKTLLELGASPDYKDSYGLTPLYHTAIVGGDPYCCELLLHEHATVCCKDENGWHEIHQACRYGHVQHLEHLLFYGADMSAQNASGNTALHICALYNQDSCARVLLFRGGNKELKNYNSQTPFQVAIIAGNFELAEYIKNHKETDIVPFREAPAYSNRRRRPPNTLAAPRVLLRSNSDNNLNASAPDWAVCSTATSHRSLSPQLLQQMPSKPEGAAKTIGSYVPGPRSRSPSLNRLGGAGEDGKRPQPLWHVGSPFALGANKDSLSAFEYPGPKRKLYSAVPGRLFVAVKPYQPQVDGEIPLHRGDRVKVLSIGEGGFWEGSARGHIGWFPAECVEEVQCKPRDSQAETRADRSKKLFRHYTVGSYDSFDTSSDCIIEEKTVVLQKKDNEGFGFVLRRAKADTPIEEFTPTPAFPALQYLESVDEGGVAWQAGLRTGDFLIEVNNENVVKVGHRQVVNMIRQGGNHLVLKVVTVTRNLDPDDTARKKAPPPPKRAPTTALTLRSKSMTSELEELVDKASVRKKKDKPEEIVPASKPSRAAENMAVEPRVATIKQRPSSRCFPAGSDMNSVYERQGIAVMTPTVPGSPKAPFLGIPRGTMRRQKSIDSRIFLSGITEEERQFLAPPMLKFTRSLSMPDTSEDIPPPPQSVPPSPPPPSPTTYNCPKSPTPRVYGTIKPAFNQNSAAKVSPATRSDTVATMMREKGMYFRRELDRYSLDSEDLYSRNAGPQANFRNKRGQMPENPYSEVGKIASKAVYVPAKPARRKGMLVKQSNVEDSPEKTCSIPIPTIIVKEPSTSSSGKSSQGSSMEIDPQAPEPPSQLRPDESLTVSSPFAAAIAGAVRDREKRLEARRNSPAFLSTDLGDEDVGLGPPAPRTRPSMFPEEGDFADEDSAEQLSSPMPSATPREPENHFVGGAEASAPGEAGRPLNSTSKAQGPESSPAVPSASSGTAGPGNYVHPLTGRLLDPSSPLALALSARDRAMKESQQGPKGEAPKADLNKPLYIDTKMRPSLDAGFPTVTRQNTRGPLRRQETENKYETDLGRDRKGDDKKNMLIDIMDTSQQKSAGLLMVHTVDATKLDNALQEEDEKAEVEMKPDSSPSEVPEGVSETEGALQISAAPEPTTVPGRTIVAVGSMEEAVILPFRIPPPPLASVDLDEDFIFTEPLPPPLEFANSFDIPDDRAASVPALSDLVKQKKSDTPQSPSLNSSQPTNSADSKKPASLSNCLPASFLPPPESFDAVADSGIEEVDSRSSSDHHLETTSTISTVSSISTLSSEGGENVDTCTVYADGQAFMVDKPPVPPKPKMKPIIHKSNALYQDALVEEDVDSFVIPPPAPPPPPGSAQPGMAKVLQPRTSKLWGDVTEIKSPILSGPKANVISELNSILQQMNREKLAKPGEGLDSPMGAKSASLAPRSPEIMSTISGTRSTTVTFTVRPGTSQPITLQSRPPDYESRTSGTRRAPSPVVSPTEMNKETLPAPLSAATASPSPALSDVFSLPSQPPSGDLFGLNPAGRSRSPSPSILQQPISNKPFTTKPVHLWTKPDVADWLESLNLGEHKEAFMDNEIDGSHLPNLQKEDLIDLGVTRVGHRMNIERALKQLLDR
In the case of B1, the response (Precipitate / Input) in data set [1] was 0.3.

B2: synthetic peptide of the C-terminal PDZ ligand of CIRL1/latrophilin (peptide)
peptide: PGPDGDGQMQLVTSL
notes: CIRL1/latrophilin, C-terminal PDZ ligand (15 residues), free N- and C-terminus; also called CIRL1 peptide; source: synthetic peptide (Genscript)
In the case of B2, the “fold reduction of affinity against the GKAP peptide” value in data set [2] was roughly 40 fold.

B3: His6-SUMO-tagged Shank2-SAM domain (T1780-R1849), WT (domain or fragment, UniProt Q9UPX8-3 1780-1849, looked up)
chain: TKPVHLWTKPDVADWLESLNLGEHKEAFMDNEIDGSHLPNLQKEDLIDLGVTRVGHRMNIERALKQLLDR
notes: Shank2 SAM domain, residues T1780-R1849; numbers count on: NM_012309.5 (isoform of 1849 residues); also called SUMO-SAM fusion; WT SAM domain; source: E. coli BL21(DE3), purified (Ni-NTA agarose, G-25); not shown: His6, N-terminal, kept; SUMO, N-terminal, kept
In the case of B3, the binding result in data set [3] is given as “binds”.

B4: Shank2-SAM domain (T1780-R1849), L1800W, His-SUMO tag cleaved off (domain or fragment, UniProt Q9UPX8-3 1780-1849, looked up)
chain: TKPVHLWTKPDVADWLESLNWGEHKEAFMDNEIDGSHLPNLQKEDLIDLGVTRVGHRMNIERALKQLLDR
notes: Shank2 SAM domain, residues T1780-R1849, patient variant L1800W; numbers count on: NM_012309.5 (isoform of 1849 residues); also called SAM-L1800W; L1800W mutant SAM domain; source: E. coli BL21(DE3), purified (Ni-NTA agarose), tag cleaved with SUMO protease and removed on Ni-NTA; not shown: His6, N-terminal, cleaved; SUMO, N-terminal, cleaved
Turning to B4, the binding result in data set [4] was “binds”.

B5: His6-SUMO-tagged Shank2-SAM domain (T1780-R1849), L1800W (domain or fragment, UniProt Q9UPX8-3 1780-1849, looked up)
chain: TKPVHLWTKPDVADWLESLNWGEHKEAFMDNEIDGSHLPNLQKEDLIDLGVTRVGHRMNIERALKQLLDR
notes: Shank2 SAM domain, residues T1780-R1849, patient variant L1800W; numbers count on: NM_012309.5 (isoform of 1849 residues); also called L1800W mutant; p.L1800W SAM domain; source: E. coli BL21(DE3), purified (Ni-NTA agarose, G-25); not shown: His6, N-terminal, kept; SUMO, N-terminal, kept
For B5, the binding result in data set [3] is on record as “binds”.

B6: Shank2-SAM domain (T1780-R1849), WT, His-SUMO tag cleaved off (domain or fragment, UniProt Q9UPX8-3 1780-1849, looked up)
chain: TKPVHLWTKPDVADWLESLNLGEHKEAFMDNEIDGSHLPNLQKEDLIDLGVTRVGHRMNIERALKQLLDR
notes: Shank2 SAM domain, residues T1780-R1849; numbers count on: NM_012309.5 (isoform of 1849 residues); also called SAM-WT; Shank2-SAM WT; source: E. coli BL21(DE3), purified (Ni-NTA agarose), tag cleaved with SUMO protease and removed on Ni-NTA; not shown: His6, N-terminal, cleaved; SUMO, N-terminal, cleaved
Consider B6, for which the binding result in data set [5] is “binds”.
